Reference: patent US20030109439A1

Biological target: KGF receptor (mouse) (UniProt P21803)
Experiment: cell-based or functional assay

UniProt P21803, sequence (P21803 22-821): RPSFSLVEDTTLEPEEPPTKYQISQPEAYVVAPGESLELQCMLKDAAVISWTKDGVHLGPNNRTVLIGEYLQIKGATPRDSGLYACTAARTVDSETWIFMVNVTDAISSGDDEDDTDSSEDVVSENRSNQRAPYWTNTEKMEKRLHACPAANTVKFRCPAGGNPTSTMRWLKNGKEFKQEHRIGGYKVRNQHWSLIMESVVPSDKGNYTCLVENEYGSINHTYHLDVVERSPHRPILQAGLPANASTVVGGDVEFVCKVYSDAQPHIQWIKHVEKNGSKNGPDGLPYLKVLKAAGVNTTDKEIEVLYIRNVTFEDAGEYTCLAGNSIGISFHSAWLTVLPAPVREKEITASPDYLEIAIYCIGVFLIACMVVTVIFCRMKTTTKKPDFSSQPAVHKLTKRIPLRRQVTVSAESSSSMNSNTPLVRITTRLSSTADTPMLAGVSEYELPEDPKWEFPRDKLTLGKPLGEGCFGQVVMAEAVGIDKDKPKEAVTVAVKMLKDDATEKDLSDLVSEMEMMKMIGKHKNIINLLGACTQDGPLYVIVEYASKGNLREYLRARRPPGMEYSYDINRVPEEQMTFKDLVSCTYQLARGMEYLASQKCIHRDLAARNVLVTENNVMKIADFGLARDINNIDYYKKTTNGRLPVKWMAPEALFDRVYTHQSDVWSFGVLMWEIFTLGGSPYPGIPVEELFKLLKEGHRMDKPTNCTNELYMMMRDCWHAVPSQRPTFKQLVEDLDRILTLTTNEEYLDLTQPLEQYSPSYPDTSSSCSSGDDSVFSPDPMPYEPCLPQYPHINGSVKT

Substance: acidic FGF (ligand)
- potency as mitogen for Balb/Mk cells (cell proliferation), relative to KGF (fold less than KGF): 10
